Columns and labels:
Assay in all cases: SPR
[1] = target: fHbp 1.P249 (N. meningitidis) (UniProt E6MV22)
[2] = target: fHbp 1.P4 (N. meningitidis) (UniProt E6MV22)
[3] = target: fHbp 1.P74 (N. meningitidis) (UniProt E6MV22)
[4] = target: fHbp 1.P9 (N. meningitidis) (UniProt E6MV22)
[5] = target: fHbp 2.P16 (N. meningitidis) (UniProt E6MV22)
[6] = target: fHbp 2.P22 (N. meningitidis) (UniProt E6MV22)
[7] = target: fHbp 2.P23 (N. meningitidis) (UniProt E6MV22)
[8] = target: fHbp 3.P45 (N. meningitidis) (UniProt E6MV22)
[9] = target: fHbp V1.1 Asp262 to Ala (N. meningitidis)
[10] = target: fHbp V1.1 Asp266 to Ala (N. meningitidis)
[11] = target: fHbp V1.1 Gln193 to Ala (N. meningitidis)
[12] = target: fHbp V1.1 Glu109 to Ala (N. meningitidis)
[13] = target: fHbp V1.1 His184 to Ala (N. meningitidis)
[14] = target: fHbp V1.1 His313 to Ala (N. meningitidis)
[15] = target: fHbp V1.1 Ile179 to Ala (N. meningitidis)
[16] = target: fHbp V1.1 Lys107 to Ala (N. meningitidis)
[17] = target: fHbp V1.1 Lys268 to Ala (N. meningitidis)
[18] = target: fHbp V1.1 Lys306 to Ala (N. meningitidis)
[19] = target: fHbp V1.1 Ser182 to Ala (N. meningitidis)
[20] = target: fHbp V2.21 Arg (at V1 Arg145) to Ala (N. meningitidis)
[21] = target: fHbp V2.21 Asn (at V1 Asn108) to Ala (N. meningitidis)
[22] = target: fHbp V2.21 Asp (at V1 Glu183) to Ala (N. meningitidis)
[23] = target: fHbp V2.21 His (at V1 His248) to Ala (N. meningitidis)
[24] = target: fHbp V2.21 Ile (at V1 Ile179) to Ala (N. meningitidis)
[25] = target: fHbp V2.21 Ile (at V1 Ile273) to Ala (N. meningitidis)
[26] = target: fHbp V2.21 Ile (at V1 Ser185) to Ala (N. meningitidis)
[27] = target: fHbp V2.21 Leu (at V1 Leu156) to Ala (N. meningitidis)
[28] = target: fHbp V2.21 Leu (at V1 Phe174) to Ala (N. meningitidis)
[29] = target: fHbp V2.21 Lys (at V1 Lys264) to Ala (N. meningitidis)
[30] = target: fHbp V2.21 Lys (at V1 Lys92) to Ala (N. meningitidis)
[31] = target: fHbp V2.21 Ser (at V1 Gln193) to Ala (N. meningitidis)
[32] = target: fHbp V2.21 Ser (at V1 Ser104) to Ala (N. meningitidis)
[33] = target: fHbp V3.28 Ala (at V1 Pro265) to Pro (N. meningitidis)
[34] = target: fHbp V3.28 Asp (at V1 Asp150) to Ala (N. meningitidis)
[35] = target: fHbp V3.28 Asp (at V1 Glu183) to Ala (N. meningitidis)
[36] = target: fHbp V3.28 Gln (at V1 Lys107) to Ala (N. meningitidis)
[37] = target: fHbp V3.28 Glu (at V1 Gly267) to Ala (N. meningitidis)
[38] = target: fHbp V3.28 His (at V1 His248) to Ala (N. meningitidis)
[39] = target: fHbp V3.28 Ile (at V1 Ile273) to Ala (N. meningitidis)
[40] = target: fHbp V3.28 Leu (at V1 Ile199) to Ala (N. meningitidis)
[41] = target: fHbp V3.28 Leu (at V1 Phe174) to Ala (N. meningitidis)
[42] = target: fHbp V3.28 Leu (at V1 Ser274) to Ala (N. meningitidis)
[43] = target: fHbp V3.28 Lys (at V1 Lys264) to Ala (N. meningitidis)
[44] = target: fHbp V3.28 Lys (at V1 Lys268) to Ala (N. meningitidis)
[45] = target: fHbp V3.28 Phe (at V1 Phe194) to Ala (N. meningitidis)
[46] = target: fHbp V3.28 Ser (at V1 Gln193) to Ala (N. meningitidis)
[47] = target: fHbp V3.28 Ser (at V1 Ser302) to Ala (N. meningitidis)
[48] = target: fHbp V3.28 Val (at V1 Ile196) to Ala (N. meningitidis)

CFH67, CCP domains 6 and 7 of complement factor H, sequence (P08603 321-443): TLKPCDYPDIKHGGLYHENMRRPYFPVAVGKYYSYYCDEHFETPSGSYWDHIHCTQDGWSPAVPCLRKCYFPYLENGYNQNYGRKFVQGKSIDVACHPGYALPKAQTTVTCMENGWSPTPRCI

Work on “CFH67, CCP domains 6 and 7 of complement factor H (from UniProt P08603 321-443) (domain or fragment)” yielded a Kd [1] of 5.36 nM, a Kd [2] of 3.94 nM and a Kd [3] of 5.14 nM. The Kd [4] was 4.87 nM, the Kd [5] was 3.46 nM and the Kd [6] was 2.13 nM. The Kd [7] was 1.99 nM, the Kd [8] was 0.227 nM and the Kd [9] was 6.54 nM. It also gave a Kd [10] of 3.34 nM, a Kd [11] of 6.66 nM and a Kd [12] of 2.93 nM. The Kd [13] was 9.27 nM, the Kd [14] was 23.5 nM and the Kd [15] was 8.06 nM. The Kd [16] was 9.59 nM, the Kd [17] was 3.53 nM and the Kd [18] was 2.94 nM. It also gave a Kd [19] of 4.35 nM, a Kd [20] of 0.408 nM and a Kd [21] of 3.82 nM. The Kd [22] was 4.29 nM, the Kd [23] was 1.92 nM and the Kd [24] was 12 nM. For the same substance, the Kd [25] was 0.231 nM, the Kd [26] was 13.3 nM and the Kd [27] was 4.7 nM. It also gave a Kd [28] of 0.157 nM, a Kd [29] of 16.7 nM and a Kd [30] of 2.73 nM. The Kd [31] was 3.95 nM, the Kd [32] was 2.52 nM and the Kd [33] was 3.76 nM. It also gave a Kd [34] of 4.4 nM, a Kd [35] of 5.96 nM and a Kd [36] of 46.4 nM. It also gave a Kd [37] of 1.45 nM, a Kd [38] of 2.97 nM and a Kd [39] of 0.201 nM. For the same substance, the Kd [40] was 25.8 nM, the Kd [41] was 4.8 nM and the Kd [42] was 18.5 nM. For the same substance, the Kd [43] was 21.1 nM, the Kd [44] was 2.61 nM and the Kd [45] was 4.25 nM. The Kd [46] was 4.14 nM, the Kd [47] was 6.18 nM and the Kd [48] was 11.6 nM.

“CFHR3_(12), the first two (N-terminal) CCP domains of complement factor H-related 3 (from UniProt Q02985 19-330) (domain or fragment)” showed a Kd [1] of 32.3 nM, a Kd [2] of 75 nM and a Kd [3] of 56.9 nM. The Kd [4] was 41.1 nM, the Kd [5] was 3.74 nM and the Kd [6] was 2.58 nM. It also gave a Kd [7] of 1.7 nM, a Kd [8] of 0.779 nM and a Kd [9] of 89.2 nM. It also gave a Kd [10] of 82.6 nM, a Kd [11] of 158 nM and a Kd [12] of 27.9 nM. It also gave a Kd [13] of 118 nM, a Kd [14] of 50.5 nM and a Kd [15] of 1270 nM. It also gave a Kd [16] of 174 nM, a Kd [17] of 43 nM and a Kd [18] of 57.7 nM. For the same substance, the Kd [19] was 83.7 nM, the Kd [20] was 2.88 nM and the Kd [21] was 4.26 nM. For the same substance, the Kd [22] was 4.45 nM, the Kd [23] was 3.56 nM and the Kd [24] was 7.84 nM. It also gave a Kd [25] of 0.605 nM, a Kd [26] of 6.48 nM and a Kd [27] of 7.54 nM. The Kd [28] was 3.44 nM, the Kd [29] was 30.2 nM and the Kd [30] was 3.06 nM. For the same substance, the Kd [31] was 3.38 nM, the Kd [32] was 4.91 nM and the Kd [33] was 4.82 nM. It also gave a Kd [34] of 3.77 nM, a Kd [35] of 4.88 nM and a Kd [36] of 25.3 nM. For the same substance, the Kd [37] was 2.57 nM, the Kd [38] was 3.61 nM and the Kd [39] was 0.292 nM. The Kd [40] was 34.6 nM, the Kd [41] was 4.78 nM and the Kd [42] was 20.3 nM. For the same substance, the Kd [43] was 29.2 nM, the Kd [44] was 3.2 nM and the Kd [45] was 5.15 nM. It also gave a Kd [46] of 3.03 nM, a Kd [47] of 7.64 nM and a Kd [48] of 14.8 nM.
